± gives the uncertainty stated by the source.
B1: POU domain, class 4, transcription factor 1, residues 266 to 347; numbered along this chain, Q01851 (parent)
chain: RELEAFAERFKQRRIKLGVTQADVGSALANLKIPGVGSLSQSTICRFESLTLSHNNMIALKPILQAWLEEAEGAQREKMNKP

Variants of: B1
Assay: abundance fitness (aPCA) (normalised: wild type 0, dead -1); higher = more abundant; growth selection in yeast, the domain comes from the species named
Conditions: Homo sapiens
With RELEAFAERFKQRRIKLGVTQADVGSALANLKIPGVGSLSQSTICRSESLTLSHNNMIALKPILQAWLEEAEGAQREKMNKP [F47S] the abundance fitness was -0.717 ± 0.14. Work on RELEAFAERFKQRRIKLGVTQADVGSALANLKIPGVGSLSQSTICRFESLTLSHNNMIALKPILQAWLEEAKGAQREKMNKP [E72K] yielded an abundance fitness of -0.518 ± 0.11. Work on RELEAFAERFKQRRIKLGVTQADVGSALANLKIPGVGSLSQSTICRFESLTLSHNNMIALKPILQAWLEEARGAQREKMNKP [E72R] yielded an abundance fitness of -0.421 ± 0.051. With RELEAFAERFKQRRIKLGVTQADVGSAMANLKIPGVGSLSQSTICRFESLTLSHNNMIALKPILQAWLEEAEGAQREKMNKP [L28M] the abundance fitness was -0.09 ± 0.037. In the case of REHEAFAERFKQRRIKLGVTQADVGSALANLKIPGVGSLSQSTICRFESLTLSHNNMIALKPILQAWLEEAEGAQREKMNKP [L3H], the abundance fitness is reported as -0.203 ± 0.12. Variant REEEAFAERFKQRRIKLGVTQADVGSALANLKIPGVGSLSQSTICRFESLTLSHNNMIALKPILQAWLEEAEGAQREKMNKP [L3E] has an abundance fitness of -0.247 ± 0.043. Variant RELEAFALRFKQRRIKLGVTQADVGSALANLKIPGVGSLSQSTICRFESLTLSHNNMIALKPILQAWLEEAEGAQREKMNKP [E8L] has an abundance fitness of 0.018 ± 0.066. RELEAFAERFKQRRIKLGVTQADVGSALARLKIPGVGSLSQSTICRFESLTLSHNNMIALKPILQAWLEEAEGAQREKMNKP [N30R] showed an abundance fitness of -0.063 ± 0.054. Work on RELEAFAERFKQRRIKLGVTQADVGSALANLKIPGVGSLSPSTICRFESLTLSHNNMIALKPILQAWLEEAEGAQREKMNKP [Q41P] yielded an abundance fitness of 0.104 ± 0.091. Variant RELEAFAERFKQRRIKLGVTQADVGSALANLKIPGVGSLSQSTICRFESLTLSHNNMIALVPILQAWLEEAEGAQREKMNKP [K61V] has an abundance fitness of -0.105 ± 0.046. Work on RELEAFAERFKQRRIKLGVTQADVGSALANLKIPGVGSLSQSTICRFESLQLSHNNMIALKPILQAWLEEAEGAQREKMNKP [T51Q] yielded an abundance fitness of 0.054 ± 0.038. Work on RELEMFAERFKQRRIKLGVTQADVGSALANLKIPGVGSLSQSTICRFESLTLSHNNMIALKPILQAWLEEAEGAQREKMNKP [A5M] yielded an abundance fitness of 0.016 ± 0.074. Variant RELEAFAERFKQRRIKLGVTQADVGSALANLSIPGVGSLSQSTICRFESLTLSHNNMIALKPILQAWLEEAEGAQREKMNKP [K32S] has an abundance fitness of 0.106 ± 0.096. RELEAFAERFKQRRIKLGVTQADVGSALANLKIPGVGSLSQSTICRFESLTLSHNNMIALKPILQAWLEEAEGAQREKMNKE [P82E] showed an abundance fitness of -0.005 ± 0.12. RELEAFAERFKQRRIKLGVTQADVGSALANLKIPGVGSLSQSTGCRFESLTLSHNNMIALKPILQAWLEEAEGAQREKMNKP [I44G] showed an abundance fitness of -1 ± 0.093. For RELEAFAERFKQRRIKLGVTQADVGSALANLKIPGVGSLSQSTACRFESLTLSHNNMIALKPILQAWLEEAEGAQREKMNKP [I44A], the abundance fitness was -1.18 ± 0.21. With RELEAFAERFKQRRIKLGVTQADVGSALANLKIPGVGSLSQSTNCRFESLTLSHNNMIALKPILQAWLEEAEGAQREKMNKP [I44N] the abundance fitness was -0.516 ± 0.23. With RELEAFAERFKQRRIKLGVTQADVGSALANLKIPGVGSLSQSTICRFESLTLSHNNMIALKPILQAWLEEYEGAQREKMNKP [A71Y] the abundance fitness was -0.353 ± 0.17. In the case of RELEAFAERFKQRRIKLGVTQADVGSALANLKIPGVGSLSQSTICRFESLTLSHNNMIALKPILQAWLEQAEGAQREKMNKP [E70Q], the abundance fitness is reported as -0.015 ± 0.034. RELEAFAERFKQRRIKLGVTQADVGSALANLKIPGVGSLSQSTICRFESLTLSHNNMIALKPILQAWLEMAEGAQREKMNKP [E70M] gave an abundance fitness of -0.1 ± 0.032. For RELSAFAERFKQRRIKLGVTQADVGSALANLKIPGVGSLSQSTICRFESLTLSHNNMIALKPILQAWLEEAEGAQREKMNKP [E4S], the abundance fitness was -0.091 ± 0.046. RELEAFAERFKQRRIKLGVTQADVGSALANLKIPGVGSLSQSTICRFESLTLSHNNMIALKPINQAWLEEAEGAQREKMNKP [L64N] gave an abundance fitness of -0.431 ± 0.21. For RELEAFAERFKQRRIKLGVTQADVGSALANLKIPGVGSLSQSTICRFESLTLSHNNMIALKPILQAWLEEAEGAQRGKMNKP [E77G], the abundance fitness was -0.025 ± 0.023. In the case of RELEAFAERFKQRRIKLGVTQADVGSALANPKIPGVGSLSQSTICRFESLTLSHNNMIALKPILQAWLEEAEGAQREKMNKP [L31P], the abundance fitness is reported as -0.26 ± 0.045. With RELEAFAERCKQRRIKLGVTQADVGSALANLKIPGVGSLSQSTICRFESLTLSHNNMIALKPILQAWLEEAEGAQREKMNKP [F10C] the abundance fitness was -0.867 ± 0.071. With RELEAFAERFKQRRIKLGVTQADVGSALANLKIPGVGSPSQSTICRFESLTLSHNNMIALKPILQAWLEEAEGAQREKMNKP [L39P] the abundance fitness was -0.03 ± 0.072. In the case of RELEAFAERFKQRRIKLGVTQADVGSALANLKIPGVGSQSQSTICRFESLTLSHNNMIALKPILQAWLEEAEGAQREKMNKP [L39Q], the abundance fitness is reported as -0.368 ± 0.085. For RELEAFAERFKQRRIKLGVTQADVGSALANLKIPGVGSLSQTTICRFESLTLSHNNMIALKPILQAWLEEAEGAQREKMNKP [S42T], the abundance fitness was 0.029 ± 0.082. Work on RELEAFAERFKQRRIKLGVTQADVGSALANLKIPGVGSLSQNTICRFESLTLSHNNMIALKPILQAWLEEAEGAQREKMNKP [S42N] yielded an abundance fitness of 0.022 ± 0.082. For RELEAFAERFKQRRIKLGVTQADVGSALANLKIPGVGSLSQATICRFESLTLSHNNMIALKPILQAWLEEAEGAQREKMNKP [S42A], the abundance fitness was 0.012 ± 0.05. For RELEAFAERFKQRRIKLGVTQADVGSALANLKIPGVGSLSQSTICRFESLTLSHNNMIALKPILQAWLEEAEGAQREKMGKP [N80G], the abundance fitness was -0.003 ± 0.032. For RELEAFAERFKQRRIKLGVTQADVGSALANLKIPGVGSLSQSTICRFESLTLSQNNMIALKPILQAWLEEAEGAQREKMNKP [H54Q], the abundance fitness was -0.02 ± 0.055. RELEAFAERFKQRRIKLGVTQADVGSALANLKIPGVGSLSQSTICRFESLTLSHNNMIALKPILQAWLEEAEGAQREKSNKP [M79S] gave an abundance fitness of -0.024 ± 0.026.
